Source: US7754689B2, “Finger-1 peptide analogs of the TGF-β superfamily” (Wyeth LLC, priority 2006, dated 2010)
No end group written: not given here.

Tests used:
BMP-12 [1] = biological target: T1, BMP-12 (Homo sapiens, UniProt Q7Z4P5); experiment: Affinity column chromatography, capture and elution of BMP-12; assay type: binding; settings: for capture of BMP-12 by column with immobilized ligand: high salt / high ionic strength load; for elution of BMP-12 from column with immobilized ligand: washes, then gradient to 50 mM acetic acid pH 3, then 6M GuHCl
T1 sequence (Q7Z4P5 322-450): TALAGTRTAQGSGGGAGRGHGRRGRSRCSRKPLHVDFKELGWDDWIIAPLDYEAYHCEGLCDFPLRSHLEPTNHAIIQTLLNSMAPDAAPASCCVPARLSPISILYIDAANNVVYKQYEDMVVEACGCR
Method: (§1) BMP-12 was immobilized on NHS-activated Sepharose™ beads at a ratio of about 20 mg:4 mL and the resulting media combined with water or neutral saline buffer to prepare a column. CHO-conditioned media augmented with 1.2 M NaCl was loaded onto the column. In some cases, the media was preconcentrated with respect to BMP before loading. The column was washed with 15 CV (column volumes) of 1.2 M NaCl in 40 mM Na2HPO4 at pH 7.2, followed by 0.5 M arginine/0.5 M NaCl in 20 mM Tris at pH 7.5 (15 CV) and a low salt wash (50 mM ammonium acetate at pH 7, 15 CV). […] Finally, the column was eluted with 5CV of the acetic acid solution with 6M guanidine hydrochloride (GuHCl).
BMP-12 was loaded and eluted from a BMP-12 affinity column as in Example 1.
BMP-12 was purified using a column prepared with the BMP-12 wild type peptide described in Example 7.

BMP-3 = biological target: T2, BMP-3 (Homo sapiens, UniProt P12645); experiment: Affinity column chromatography, capture and elution of BMP-3; assay type: binding; settings: for capture of BMP-3 by column with immobilized ligand: CHO-conditioned media with 1.2 M NaCl (high salt) load; for elution of BMP-3 from column with immobilized ligand: washes, then gradient to 50 mM acetic acid pH 3, then 6M GuHCl
T2 construct: a propeptide fragment copurifies along with the mature protein; made in house; host or cells: CHO cells (conditioned medium)
T2 sequence (P12645 363-472): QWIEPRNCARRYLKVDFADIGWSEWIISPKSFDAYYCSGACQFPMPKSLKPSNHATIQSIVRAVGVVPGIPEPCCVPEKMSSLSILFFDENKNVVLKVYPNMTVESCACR
Method: as §1
The eluate was analyzed using HPLC.
4 mL of the resulting resin (1.6×2.0 cm) was used to prepare a column. The column was loaded with BMP-3 and eluted as in Example 1.

GDF-9 = biological target: T3, GDF-9 (Homo sapiens, UniProt O60383); experiment: Affinity column chromatography, capture and elution of GDF-9; assay type: binding
T3 sequence (O60383 320-454): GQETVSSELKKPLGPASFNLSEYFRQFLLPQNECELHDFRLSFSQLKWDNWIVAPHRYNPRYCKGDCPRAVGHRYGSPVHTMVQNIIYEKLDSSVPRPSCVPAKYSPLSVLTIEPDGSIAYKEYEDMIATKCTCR
Method: as §1
A lower molecular weight contaminant was also present.

BMP-12 [2] = biological target: T4, BMP-12 (UniProt Q7Z4P5 322-450, limits assumed); experiment: peptide resin, filter plate; load 12: 50 mM Tris, 0.1 M NaCl, 20% MPD, pH 8.0
T4 construct: also called BMP12/GDF7
T4 sequence (looked up): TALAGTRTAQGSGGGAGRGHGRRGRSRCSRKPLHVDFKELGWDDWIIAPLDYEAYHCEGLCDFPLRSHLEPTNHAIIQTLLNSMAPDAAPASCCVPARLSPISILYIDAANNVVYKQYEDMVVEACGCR
Method: (§2) The coupled resins, plus an unconjugated resin for use as a control, were suspended in 16% ethanol, 150 mM NaCl, and 20 mM Tris buffer at pH 7.5 at a 25% v/v ratio (e.g., 25% ethanol, 75% Tris buffer). A Tecan liquid-handling robot was employed to aliquot 200 μL of each slurry into one of eight rows of a 96 well polystyrene filter plate (0.45 μm hydrophilic filters, Whatman catalog number 770-1806). Spinning at 1200 g for 3 min removed the liquid phase, leaving 50 μL of wet resin on the filters. The resins were then equilibrated with the loading buffers listed in Table 6 (K is a coefficient characterizing the strength of protein binding to a particular resin in a particular buffer). […] The resins were loaded by transferring 150 μL from the load plate to the filter plate and then incubating 20 min on a shaking platform to facilitate binding. The filter plate was spun down and the filtrate collected in a 96 well UV plate. The protein concentration in the filtrate, or flow-through, was calculated as $(A280-A320)/1.3$. The filter plate was then washed with 150 μL of 100 mM acetic acid, followed by 150 μL of 4M guanidine-HCl and 50 mM sodium acetate at pH 4.0. The protein concentration was measured in the new filtrate as described above. […] Flow-through and acetic acid elution samples from column 4 of the plate (loaded with MES pH 6) were analyzed on a gel (FIG. 14).

BMP-12 [3] = biological target: T4, BMP-12; experiment: peptide resin, filter plate; load 6: 1M CHES pH 9.7
Method: as §2

BMP-12 [4] = biological target: T4, BMP-12; experiment: peptide resin, filter plate; load 11: 50 mM Tris, 0.25 M NaCl, 30% MPD, pH 8.0
Method: as §2

BMP-12 [5] = biological target: T4, BMP-12; experiment: peptide resin, filter plate; load 4: 25 mM MES pH 6.0
Method: as §2

BMP-12 [6] = biological target: T4, BMP-12; experiment: peptide resin, filter plate; load 2: 50 mM Acetic Acid, 0.1 M NaCl, pH 4.0
Method: as §2

BMP-12 [7] = biological target: T4, BMP-12; experiment: peptide resin, filter plate; load 3: 25 mM Na Acetate pH 5.0
Method: as §2

BMP-12 [8] = biological target: T4, BMP-12; experiment: peptide resin, filter plate; load 10: 50 mM Tris, 0.1 M NaCl, 40% MPD, pH 8.0
Method: as §2

BMP-12 [9] = biological target: T4, BMP-12; experiment: peptide resin, filter plate; load 5: 25 mM HEPES pH 7.0
Method: as §2

BMP-12 [10] = biological target: T4, BMP-12; experiment: peptide resin, filter plate; load 1: 50 mM Acetic Acid, 0.1 M NaCl, pH 2.9
Method: as §2

Molecule: KELGWDDWIIAPLDYEAYHCEGLC [SEQ ID NO: 2]
- capture of BMP-12 by column with immobilized ligand (BMP-12 [1]): effectively captured
- elution of BMP-12 from column with immobilized ligand (BMP-12 [1]): eluted with acetic acid
- capture of BMP-3 by column with immobilized ligand (BMP-3): effectively captured
- effectiveness of immobilized ligand compared with the BMP-2 mutant (BMP-3; in general): less effective than the BMP-2 mutant
- elution of BMP-3 from column with immobilized ligand (BMP-3): eluted in acetic acid

Molecule: SDVGWNDWIVAPPGYHAFYCHGEK [SEQ ID NO: 1]
- elution of GDF-9 from column with immobilized ligand (GDF-9): eluted with both 500 mM arginine and acetic acid
- capture of GDF-9 by column with immobilized ligand (GDF-9; high salt solution load): effectively captured
- capture of BMP-12 by column with immobilized ligand (BMP-12 [1]): effectively captured
- elution of BMP-12 from column with immobilized ligand (BMP-12 [1]): eluted with acetic acid
- capture of BMP-3 by column with immobilized ligand (BMP-3): effectively captured
- elution of BMP-3 from column with immobilized ligand (BMP-3): eluted, along with a propeptide fragment, in acetic acid

B1: BMP2 C-trunc_2 peptide 746 (peptide)
peptide: Ac-LYVSDVGWNDWIVK
modifications: not fully specified (residue 3); printed as Ac-LYV**SDVGWNDWIVK; also: ** after V3 not explained
- Flow-through K (BMP-12 [2]): 0
- Flow-through conc (BMP-12 [2]): 0.486 mg/mL
- Flow-through K (BMP-12 [3]): -1
- Flow-through conc (BMP-12 [3]): 0.71 mg/mL
- Flow-through K (BMP-12 [4]): 0
- Flow-through conc (BMP-12 [4]): 0.515 mg/mL
- 100 mM HAc elution K (BMP-12 [5]): 1
- 100 mM HAc elution conc (BMP-12 [5]): 0.32 mg/mL
- 4M Gnd, 50 mM NaAc pH 4 Strip Conc (BMP-12 [5]): 0.07 mg/ml
- Flow-through K (BMP-12 [5]): 47
- Flow-through conc (BMP-12 [5]): 0.029 mg/mL
- 100 mM HAc elution K (BMP-12 [6]): 3
- 100 mM HAc elution conc (BMP-12 [6]): 0.208 mg/mL
- 4M Gnd, 50 mM NaAc pH 4 Strip Conc (BMP-12 [6]): 0.162 mg/ml
- Flow-through K (BMP-12 [6]): 25
- Flow-through conc (BMP-12 [6]): 0.052 mg/mL
- 100 mM HAc elution K (BMP-12 [7]): 1
- 100 mM HAc elution conc (BMP-12 [7]): 0.296 mg/mL
- 4M Gnd, 50 mM NaAc pH 4 Strip Conc (BMP-12 [7]): 0.1 mg/ml
- Flow-through K (BMP-12 [7]): 18
- Flow-through conc (BMP-12 [7]): 0.07 mg/mL
- Flow-through K (BMP-12 [8]): 0
- Flow-through conc (BMP-12 [8]): 0.505 mg/mL
- 100 mM HAc elution K (BMP-12 [9]): 1
- 100 mM HAc elution conc (BMP-12 [9]): 0.249 mg/mL
- 4M Gnd, 50 mM NaAc pH 4 Strip Conc (BMP-12 [9]): 0.068 mg/ml
- Flow-through K (BMP-12 [9]): 6
- Flow-through conc (BMP-12 [9]): 0.162 mg/mL
- 100 mM HAc elution K (BMP-12 [10]): 3
- 100 mM HAc elution conc (BMP-12 [10]): 0.154 mg/mL
- 4M Gnd, 50 mM NaAc pH 4 Strip Conc (BMP-12 [10]): 0.135 mg/ml
- Flow-through K (BMP-12 [10]): 7
- Flow-through conc (BMP-12 [10]): 0.15 mg/mL
